Reference: paper PMC6786517

What follows are substances tested against F-actin (assay: co-sedimentation; F-actin co-sedimentation of HA-cortactin WT, 8KQ and 8KR; gray values of cortactin in pellets and supernatants).

ratio of gray value of cortactin in pellets and supernatants | Substance
0.781 | HA-tagged acetylation-mimetic cortactin (8KQ) (from UniProt Q60598 1-546) (natural protein)
1.03 | HA-tagged cortactin (from UniProt Q60598 1-546) (natural protein)
1.59 | HA-tagged non-acetylation-mimetic cortactin (8KR) (from UniProt Q60598 1-546) (natural protein)
